Ends that are not written are not given here.

First the molecules themselves.
T1: SMG5–7 TPR complex (heterodimer of SMG5 TPR and SMG7 TPR) (human, UniProt Q9UPR3 1-803; Q92540 1-499, Δ408–632)
T1 construct: SMG5, human, residues 1–803 with the predicted insertion 408–632 removed (SMG5 TPR); SMG7, human, residues 1–499 (SMG7 TPR); Written SMG5-His and His-(TEV)-SMG7 in the methods; also called SMG5–SMG7; SMG5–7 TPR heterodimer; not shown: His, N-terminal, cleaved; copies: 1 + 1
T1 sequence (looked up) 1: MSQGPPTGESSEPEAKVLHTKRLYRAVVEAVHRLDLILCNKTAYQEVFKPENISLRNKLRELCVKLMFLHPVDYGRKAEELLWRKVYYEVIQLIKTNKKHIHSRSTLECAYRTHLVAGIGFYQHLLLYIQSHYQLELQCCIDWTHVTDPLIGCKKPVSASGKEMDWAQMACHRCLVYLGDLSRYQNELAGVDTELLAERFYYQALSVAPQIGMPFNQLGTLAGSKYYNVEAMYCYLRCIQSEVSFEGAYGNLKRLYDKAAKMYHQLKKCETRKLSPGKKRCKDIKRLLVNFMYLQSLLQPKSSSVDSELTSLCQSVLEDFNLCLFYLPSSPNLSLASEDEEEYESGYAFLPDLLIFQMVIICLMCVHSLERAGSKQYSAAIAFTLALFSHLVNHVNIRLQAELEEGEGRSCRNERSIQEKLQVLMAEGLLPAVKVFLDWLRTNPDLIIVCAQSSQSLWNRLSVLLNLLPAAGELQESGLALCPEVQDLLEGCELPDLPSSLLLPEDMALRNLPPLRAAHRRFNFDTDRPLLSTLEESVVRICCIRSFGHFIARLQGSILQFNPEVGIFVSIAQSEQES
T1 sequence (looked up) 2: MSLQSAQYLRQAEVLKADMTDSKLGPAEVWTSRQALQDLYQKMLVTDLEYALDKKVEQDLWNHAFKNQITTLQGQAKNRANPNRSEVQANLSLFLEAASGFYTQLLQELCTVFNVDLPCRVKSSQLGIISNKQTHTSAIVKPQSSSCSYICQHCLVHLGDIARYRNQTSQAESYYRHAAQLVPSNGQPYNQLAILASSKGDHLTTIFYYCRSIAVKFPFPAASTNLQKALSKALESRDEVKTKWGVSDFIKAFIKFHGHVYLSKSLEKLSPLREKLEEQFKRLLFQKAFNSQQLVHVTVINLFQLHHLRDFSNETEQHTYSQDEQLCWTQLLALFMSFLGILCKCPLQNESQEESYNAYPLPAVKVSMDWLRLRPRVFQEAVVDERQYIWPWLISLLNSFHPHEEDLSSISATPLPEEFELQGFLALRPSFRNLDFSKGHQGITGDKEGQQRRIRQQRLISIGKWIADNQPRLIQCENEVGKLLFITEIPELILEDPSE

B1: GST-UPF1fl, unphosphorylated (mock-treated with SMG1 KD or not treated) (natural protein, human, UniProt Q92900-2 1-1118, looked up)
chain: MSVEAYGPSSQTLTFLDTEEAELLGADTQGSEFEFTDFTLPSQTQTPPGGPGGPGGGGAGGPGGAGAGAAAGQLDAQVGPEGILQNGAVDDSVAKTSQLLAELNFEEDEEDTYYTKDLPIHACSYCGIHDPACVVYCNTSKKWFCNGRGNTSGSHIVNHLVRAKCKEVTLHKDGPLGETVLECYNCGCRNVFLLGFIPAKADSVVVLLCRQPCASQSSLKDINWDSSQWQPLIQDRCFLSWLVKIPSEQEQLRARQITAQQINKLEELWKENPSATLEDLEKPGVDEEPQHVLLRYEDAYQYQNIFGPLVKLEADYDKKLKESQTQDNITVRWDLGLNKKRIAYFTLPKTDSDMRLMQGDEICLRYKGDLAPLWKGIGHVIKVPDNYGDEIAIELRSSVGAPVEVTHNFQVDFVWKSTSFDRMQSALKTFAVDETSVSGYIYHKLLGHEVEDVIIKCQLPKRFTAQGLPDLNHSQVYAVKTVLQRPLSLIQGPPGTGKTVTSATIVYHLARQGNGPVLVCAPSNIAVDQLTEKIHQTGLKVVRLCAKSREAIDSPVSFLALHNQIRNMDSMPELQKLQQLKDETGELSSADEKRYRALKRTAERELLMNADVICCTCVGAGDPRLAKMQFRSILIDESTQATEPECMVPVVLGAKQLILVGDHCQLGPVVMCKKAAKAGLSQSLFERLVVLGIRPIRLQVQYRMHPALSAFPSNIFYEGSLQNGVTAADRVKKGFDFQWPQPDKPMFFYVTQGQEEIASSGTSYLNRTEAANVEKITTKLLKAGAKPDQIGIITPYEGQRSYLVQYMQFSGSLHTKLYQEVEIASVDAFQGREKDFIILSCVRANEHQGIGFLNDPRRLNVALTRARYGVIIVGNPKALSKQPLWNHLLNYYKEQKVLVEGPLNNLRESLMQFSKPRKLVNTINPGARFMTTAMYDAREAIIPGSVYDRSSQGRPSSMYFQTHDQIGMISAGPSHVAAMNIPIPFNLVMPPMPPPGYFGQANGPAAGRGTPKGKTGRGGRQKNRFGLPGPSQTNLPNSQASQDVASQPFSQGALTQGYISMSQPSQMSQPGLSQPELSQDSYLGDEFKSQIDVALSQDSTYQGERAYQHGGVTGLSQY
notes: UPF1, human; also called full-length GST-UPF1; unphosphorylated UPF1
B2: GST-UPF1fl phosphorylated in vitro by SMG1 wt (natural protein, human, UniProt Q92900-2 1-1118, looked up)
chain: MSVEAYGPSSQTLTFLDTEEAELLGADTQGSEFEFTDFTLPSQTQTPPGGPGGPGGGGAGGPGGAGAGAAAGQLDAQVGPEGILQNGAVDDSVAKTSQLLAELNFEEDEEDTYYTKDLPIHACSYCGIHDPACVVYCNTSKKWFCNGRGNTSGSHIVNHLVRAKCKEVTLHKDGPLGETVLECYNCGCRNVFLLGFIPAKADSVVVLLCRQPCASQSSLKDINWDSSQWQPLIQDRCFLSWLVKIPSEQEQLRARQITAQQINKLEELWKENPSATLEDLEKPGVDEEPQHVLLRYEDAYQYQNIFGPLVKLEADYDKKLKESQTQDNITVRWDLGLNKKRIAYFTLPKTDSDMRLMQGDEICLRYKGDLAPLWKGIGHVIKVPDNYGDEIAIELRSSVGAPVEVTHNFQVDFVWKSTSFDRMQSALKTFAVDETSVSGYIYHKLLGHEVEDVIIKCQLPKRFTAQGLPDLNHSQVYAVKTVLQRPLSLIQGPPGTGKTVTSATIVYHLARQGNGPVLVCAPSNIAVDQLTEKIHQTGLKVVRLCAKSREAIDSPVSFLALHNQIRNMDSMPELQKLQQLKDETGELSSADEKRYRALKRTAERELLMNADVICCTCVGAGDPRLAKMQFRSILIDESTQATEPECMVPVVLGAKQLILVGDHCQLGPVVMCKKAAKAGLSQSLFERLVVLGIRPIRLQVQYRMHPALSAFPSNIFYEGSLQNGVTAADRVKKGFDFQWPQPDKPMFFYVTQGQEEIASSGTSYLNRTEAANVEKITTKLLKAGAKPDQIGIITPYEGQRSYLVQYMQFSGSLHTKLYQEVEIASVDAFQGREKDFIILSCVRANEHQGIGFLNDPRRLNVALTRARYGVIIVGNPKALSKQPLWNHLLNYYKEQKVLVEGPLNNLRESLMQFSKPRKLVNTINPGARFMTTAMYDAREAIIPGSVYDRSSQGRPSSMYFQTHDQIGMISAGPSHVAAMNIPIPFNLVMPPMPPPGYFGQANGPAAGRGTPKGKTGRGGRQKNRFGLPGPSQTNLPNSQASQDVASQPFSQGALTQGYISMSQPSQMSQPGLSQPELSQDSYLGDEFKSQIDVALSQDSTYQGERAYQHGGVTGLSQY
modifications: phosphorylated by SMG1 at SQ and TQ motifs present exclusively in the N- and C-terminal tails; detected sites include Thr28, Ser1078, Ser1096 and Ser1116
notes: UPF1, human; also called phospho-UPF1; phospho-UPF1fl
B3: GST-UPF1CT4 (residues 1086–1118) phosphorylated in vitro by SMG1 wt (domain or fragment, human, UniProt Q92900-2 1086-1118, looked up)
chain: {GST}-EFKSQIDVALSQDSTYQGERAYQHGGVTGLSQY
modifications: also: phosphorylated in vitro by SMG1 at SQ motifs, sites not given here
notes: source: E. coli, purified, then phosphorylated in vitro with SMG1 wt
B4: GST-UPF1CT (residues 917–1118) phosphorylated in vitro by SMG1 wt (domain or fragment, human, UniProt Q92900-2 917-1118, looked up)
chain: RKLVNTINPGARFMTTAMYDAREAIIPGSVYDRSSQGRPSSMYFQTHDQIGMISAGPSHVAAMNIPIPFNLVMPPMPPPGYFGQANGPAAGRGTPKGKTGRGGRQKNRFGLPGPSQTNLPNSQASQDVASQPFSQGALTQGYISMSQPSQMSQPGLSQPELSQDSYLGDEFKSQIDVALSQDSTYQGERAYQHGGVTGLSQY
modifications: phosphorylated in vitro by SMG1 at SQ motifs; sites not stated for this construct
notes: also called C-terminal tail of UPF1; source: E. coli BL21 (DE3) STAR pRARE, purified, then phosphorylated in vitro with SMG1 wt
B5: GST-UPF1CT2 (residues 1070–1118) phosphorylated in vitro by SMG1 wt (domain or fragment, human, UniProt Q92900-2 1070-1118, looked up)
chain: PGLSQPELSQDSYLGDEFKSQIDVALSQDSTYQGERAYQHGGVTGLSQY
modifications: not fully specified (N-terminus); also: phosphorylated in vitro by SMG1, sites not given here, GST fusion partner not in chain
notes: as for B3
B6: GST-UPF1CT1 (residues 1052–1118) phosphorylated in vitro by SMG1 wt (domain or fragment, human, UniProt Q92900-2 1052-1118, looked up)
chain: {GST}-GALTQGYISMSQPSQMSQPGLSQPELSQDSYLGDEFKSQIDVALSQDSTYQGERAYQHGGVTGLSQY
modifications: also: phosphorylated in vitro by SMG1 at SQ motifs, sites not given here
notes: as for B3

T2 sequence (Q86US8 whole entry): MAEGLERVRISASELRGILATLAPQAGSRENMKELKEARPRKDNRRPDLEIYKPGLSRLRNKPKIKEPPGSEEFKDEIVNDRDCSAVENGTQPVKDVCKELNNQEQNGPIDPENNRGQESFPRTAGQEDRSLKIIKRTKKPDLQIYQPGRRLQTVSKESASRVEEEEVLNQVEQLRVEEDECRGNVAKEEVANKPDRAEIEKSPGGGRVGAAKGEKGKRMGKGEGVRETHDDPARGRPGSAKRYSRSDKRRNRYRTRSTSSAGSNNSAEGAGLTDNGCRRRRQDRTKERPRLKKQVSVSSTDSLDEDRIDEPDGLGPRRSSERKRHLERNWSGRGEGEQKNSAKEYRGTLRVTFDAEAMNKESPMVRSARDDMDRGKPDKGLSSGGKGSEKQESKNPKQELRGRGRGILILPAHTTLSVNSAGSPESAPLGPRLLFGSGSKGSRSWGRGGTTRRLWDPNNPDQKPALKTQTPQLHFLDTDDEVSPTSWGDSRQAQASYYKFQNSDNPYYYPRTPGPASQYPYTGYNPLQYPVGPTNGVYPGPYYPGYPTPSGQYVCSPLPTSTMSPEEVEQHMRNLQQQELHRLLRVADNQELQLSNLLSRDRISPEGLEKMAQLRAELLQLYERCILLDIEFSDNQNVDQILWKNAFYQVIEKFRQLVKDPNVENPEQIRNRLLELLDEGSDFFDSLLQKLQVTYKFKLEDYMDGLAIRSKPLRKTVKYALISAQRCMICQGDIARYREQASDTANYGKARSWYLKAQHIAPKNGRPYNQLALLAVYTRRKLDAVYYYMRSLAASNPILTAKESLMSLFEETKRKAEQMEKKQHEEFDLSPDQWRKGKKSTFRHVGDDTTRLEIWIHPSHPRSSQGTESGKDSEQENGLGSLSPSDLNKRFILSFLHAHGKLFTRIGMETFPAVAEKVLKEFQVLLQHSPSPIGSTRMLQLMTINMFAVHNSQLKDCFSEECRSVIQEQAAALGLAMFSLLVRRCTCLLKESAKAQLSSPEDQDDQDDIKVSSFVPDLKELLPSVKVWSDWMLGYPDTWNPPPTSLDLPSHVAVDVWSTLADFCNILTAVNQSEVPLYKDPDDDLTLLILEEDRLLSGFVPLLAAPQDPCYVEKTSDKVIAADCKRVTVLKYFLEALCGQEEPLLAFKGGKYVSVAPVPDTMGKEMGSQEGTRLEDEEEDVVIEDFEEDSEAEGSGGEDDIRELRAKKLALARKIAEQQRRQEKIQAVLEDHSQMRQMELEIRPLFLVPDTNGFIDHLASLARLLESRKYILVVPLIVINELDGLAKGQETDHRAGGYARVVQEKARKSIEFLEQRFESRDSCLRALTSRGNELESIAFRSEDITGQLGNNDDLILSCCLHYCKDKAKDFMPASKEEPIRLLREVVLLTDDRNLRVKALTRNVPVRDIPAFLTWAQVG

One test has as its target T2, SMG6fl (HA-Flag tagged, purified from HEK 293T cells) (human, UniProt Q86US8 1-1419).
T2 construct: SMG6, human, full length (SMG6CT ends at residue 1419)
In words: pull-down; GST pull-down as in Figure 1C with GST-UPF1fl as bait and several preys added together (SMG6fl, UPF2, UPF3, EJC; or SMG6fl and SMG5–7 TPR after treatment with SMG1 wt or KD); Coomassie. As to conditions: both partners purified.
B1: the binding result was “binds”.

On to B2, for which the binding result is recorded as “binds”.

A further test has as its target T1, SMG5–7 TPR complex (heterodimer of SMG5 …). In words: pull-down; GST pull-down, one prey: ∼2 μg GST-tagged bait with equal amount of untagged prey in 20 mM HEPES pH 7.5, 125 mM NaCl, 2% glycerol, 2 mM DTT (45 μl), 45 min at room temperature; glutathione–Sepharose beads in 20 mM HEPES pH 7.5, 150 mM NaCl, 10% glycerol, 2 mM DTT, 0.1% NP-40, 1 h at 4°C; eluted with glutathione; SDS-PAGE, Coomassie; GST-UPF1 constructs pre-treated with SMG1 wt or SMG1 KD where indicated. Conditions: both partners purified.
In the case of B3, the binding result is on record as “binds”.

Consider B4, for which the binding result is “binds”. On the same count and under the same terms, next, B5: “binds”. With B6, the binding result is on record as “binds”.

Source of the values: article PMC4132714, “Phospho-dependent and phospho-independent interactions of the helicase UPF1 with the NMD factors SMG5–SMG7 and SMG6” (Nucleic Acids Research, 2014).
